Experimental data published in IntAct's records for PubMed 17032765.

B1: Segment polarity protein dishevelled homolog DVL-2 (Mus musculus), Q60838 (parent)
chain: MAGSSAGGGGVGETKVIYHLDEEETPYLVKIPVPAERITLGDFKSVLQRPAGAKYFFKSMDQDFGVVKEEISDDNARLPCFNGRVVSWLVSSDTPQPEVAPPAHESRTELVPPPPPLPPLPPERTSGIGDSRPPSFHPNVSSSHENLEPETETESVVSLRRDRPRRRDSSEHGAGGHRPGGPSRLERHLAGYESSSTLMTSELESTSLGDSDEDDTMSRFSSSTEQSSASRLLKRHRRRRKQRPPRMERTSSFSSVTDSTMSLNIITVTLNMEKYNFLGISIVGQSNERGDGGIYIGSIMKGGAVAADGRIEPGDMLLQVNDMNFENMSNDDAVRVLRDIVHKPGPIVLTVAKCWDPSPQAYFTLPRNEPIQPIDPAAWVSHSAALTGAFPAYPGSSSMSTITSGSSLPDGCEGRGLSVHMDMASVTKAMAAPESGLEVRDRMWLKITIPNAFLGSDVVDWLYHHVEGFPERREARKYASGLLKAGLIRHTVNKITFSEQCYYVFGDLSGGCESYLVNLSLNDNDGSSGASDQDTLAPLPGATPWPLLPTFSYQYPAPHPYSPQPPPYHELSSYTYGGGSASSQHSEGSRSSGSTRSDGGAGRTGRPEERAPESKSGSGSESELSSRGGSLRRGGEPGGTGDGGPPPSRGSTGAPPNLRALPGLHPYGAPSGMALPYNPMMVVMMPPPPPPVSTAVQPPGAPPVRDLGSVPPELTASRQSFHMAMGNPSEFFVDVM

Variants of: B1
Conditions: with Ankrd6, Q69ZU8-1
Sequence of Ankrd6, Q69ZU8-1 (Q69ZU8 whole entry): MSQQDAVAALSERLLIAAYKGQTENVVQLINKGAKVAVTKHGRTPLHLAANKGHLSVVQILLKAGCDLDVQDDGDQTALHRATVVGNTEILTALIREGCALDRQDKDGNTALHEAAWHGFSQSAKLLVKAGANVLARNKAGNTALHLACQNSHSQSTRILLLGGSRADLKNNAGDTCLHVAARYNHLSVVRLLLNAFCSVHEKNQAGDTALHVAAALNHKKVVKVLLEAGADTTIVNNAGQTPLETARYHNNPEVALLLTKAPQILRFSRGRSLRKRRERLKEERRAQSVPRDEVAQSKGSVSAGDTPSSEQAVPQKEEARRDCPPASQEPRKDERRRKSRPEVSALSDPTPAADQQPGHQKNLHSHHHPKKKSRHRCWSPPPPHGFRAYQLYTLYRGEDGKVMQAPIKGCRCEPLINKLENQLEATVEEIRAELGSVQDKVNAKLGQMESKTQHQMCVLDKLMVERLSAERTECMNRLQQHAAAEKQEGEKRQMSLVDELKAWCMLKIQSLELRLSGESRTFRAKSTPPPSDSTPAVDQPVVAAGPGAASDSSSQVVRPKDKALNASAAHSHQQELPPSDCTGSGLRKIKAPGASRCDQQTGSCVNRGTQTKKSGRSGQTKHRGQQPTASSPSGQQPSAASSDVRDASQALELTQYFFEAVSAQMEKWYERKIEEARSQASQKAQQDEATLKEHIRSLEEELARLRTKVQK

Variant | effect of a mutation on the interaction
K446M | decreasing interaction strength
